One assay addresses human TGF-β1 (human) (UniProt P01137). The experiment in a line: ELISA, TGF-β1 coated at 0.5 µg/ml, HRP anti-human IgG detection, OD450. In general terms: In an ELISA, binding on a coated surface is turned into a signal by an enzyme label.
The next assay addresses human TGF-β3 (human) (UniProt P10600). Description: ELISA, TGF-β3 coated at 0.5 µg/ml, HRP anti-human IgG detection, OD450.
The target in assay [1] is human PD-L1 on CHO-K1 cells (human) (UniProt Q9NZQ7). Description: flow cytometry on CHO-K1 cells overexpressing human PD-L1, PE anti-human IgG detection, median fluorescence intensity. In general terms: In flow cytometry, cells or beads pass a laser one at a time.
human PD-L1 on CHO-K1 cells (human), sequence (Q9NZQ7 19-290): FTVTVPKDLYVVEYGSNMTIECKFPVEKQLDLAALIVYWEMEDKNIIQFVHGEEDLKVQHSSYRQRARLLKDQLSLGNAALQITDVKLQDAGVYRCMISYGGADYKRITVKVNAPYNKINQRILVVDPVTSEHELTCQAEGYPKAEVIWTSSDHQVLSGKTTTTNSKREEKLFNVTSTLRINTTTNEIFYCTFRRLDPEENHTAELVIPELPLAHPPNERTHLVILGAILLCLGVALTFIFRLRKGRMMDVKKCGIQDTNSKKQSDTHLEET
For assay [2] the target is unchanged. The experiment in a line: dual-target flow cytometry: sample pre-mixed with 3 µg/ml human TGF-β1, then CHO-K1 cells overexpressing human PD-L1, detection with PE anti-human TGF-β1 antibody (signal needs PD-L1 and TGF-β1 bound at once).

What is called EC50 is the concentration needed to bring the measured effect to its halfway point. Higher therefore signals lower potency in that assay.

human TGF-β1 (human), sequence (P01137 279-390 limits assumed): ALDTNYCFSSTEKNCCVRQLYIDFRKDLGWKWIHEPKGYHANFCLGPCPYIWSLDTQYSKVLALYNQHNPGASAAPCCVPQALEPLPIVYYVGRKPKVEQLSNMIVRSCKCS
human TGF-β3 (human), sequence (P10600 301-412 limits assumed): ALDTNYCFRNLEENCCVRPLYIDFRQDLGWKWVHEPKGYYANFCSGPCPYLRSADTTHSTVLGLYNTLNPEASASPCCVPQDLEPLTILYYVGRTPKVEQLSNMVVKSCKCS

As to “900544 (control drug M7824 from Merck, expressed in-house) (bispecific antibody)”, the EC50 came to 598 pM with human TGF-β1 (human), 1120 pM with human TGF-β3 (human), 1430 pM in assay [1] and 788 pM in assay [2].

Values taken from US20240026004A1.
